Test results reported in patent publication US20230051715A1 (MABWELL THERAPEUTICS, published 2023).
Residue numbers refer to the chain shown, from its start. Names may count otherwise.

T1: cynomolgus monkey C1s (produced in house) (cynomolgus monkey, UniProt P09871 16-685 (human entry), limits assumed)
T1 construct: also called CyC1s
T1 chain: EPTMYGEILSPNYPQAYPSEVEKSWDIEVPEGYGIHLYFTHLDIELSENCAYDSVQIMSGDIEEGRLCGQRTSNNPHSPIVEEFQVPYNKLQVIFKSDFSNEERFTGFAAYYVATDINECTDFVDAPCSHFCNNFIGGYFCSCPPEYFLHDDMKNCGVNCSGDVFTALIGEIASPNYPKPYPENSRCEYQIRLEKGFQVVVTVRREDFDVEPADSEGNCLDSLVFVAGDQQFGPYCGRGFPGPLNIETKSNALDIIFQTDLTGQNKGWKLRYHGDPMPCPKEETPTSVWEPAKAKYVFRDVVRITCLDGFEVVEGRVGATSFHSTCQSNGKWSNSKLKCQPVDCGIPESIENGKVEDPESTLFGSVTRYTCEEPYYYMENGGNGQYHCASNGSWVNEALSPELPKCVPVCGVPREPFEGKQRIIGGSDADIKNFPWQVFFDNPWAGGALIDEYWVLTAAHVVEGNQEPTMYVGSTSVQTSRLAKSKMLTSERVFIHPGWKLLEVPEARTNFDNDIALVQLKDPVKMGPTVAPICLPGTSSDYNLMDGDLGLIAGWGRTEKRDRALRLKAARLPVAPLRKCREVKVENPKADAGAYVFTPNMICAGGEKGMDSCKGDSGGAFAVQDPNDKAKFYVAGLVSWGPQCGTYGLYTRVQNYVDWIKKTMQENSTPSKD

T2: human C1s mutant M4 (P280A & E282K) (human, UniProt P09871 16-688)
T2 construct: The entry is the mutant itself
T2 sequence: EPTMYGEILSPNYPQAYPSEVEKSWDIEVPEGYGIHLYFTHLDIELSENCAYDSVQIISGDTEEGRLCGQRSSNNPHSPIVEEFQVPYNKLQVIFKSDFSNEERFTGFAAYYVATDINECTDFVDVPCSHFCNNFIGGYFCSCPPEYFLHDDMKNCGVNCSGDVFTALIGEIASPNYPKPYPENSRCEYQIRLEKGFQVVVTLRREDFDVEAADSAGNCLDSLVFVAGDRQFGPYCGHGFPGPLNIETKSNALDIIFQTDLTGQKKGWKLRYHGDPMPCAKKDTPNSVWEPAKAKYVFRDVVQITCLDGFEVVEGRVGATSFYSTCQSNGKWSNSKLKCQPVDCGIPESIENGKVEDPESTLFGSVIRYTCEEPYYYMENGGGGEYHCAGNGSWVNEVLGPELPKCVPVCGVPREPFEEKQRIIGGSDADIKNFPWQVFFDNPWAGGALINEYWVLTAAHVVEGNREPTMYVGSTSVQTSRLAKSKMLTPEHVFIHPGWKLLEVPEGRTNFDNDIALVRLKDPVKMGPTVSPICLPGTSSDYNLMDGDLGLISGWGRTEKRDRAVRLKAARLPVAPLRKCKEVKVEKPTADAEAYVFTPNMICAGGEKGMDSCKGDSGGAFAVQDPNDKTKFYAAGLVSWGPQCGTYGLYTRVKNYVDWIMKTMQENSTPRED

B1: Anti-C1s antibody hz2-7(H1L2) (antibody, V domains shown)
VH: EVQLLESGGGLVQPGGSLRLSCAASGFTFSNYFMNWVRQAPGKGLEWVSEIRLKFTNYATHYADSVKGRFTISRDDSKSTLYLQMNSLRAEDTAVYYCTRDYGSRNGYFDYWGQGTLVTVSS
VL: DIVMTQTPLSLPVTPGEPASISCRSSKSLLHSNGNTFLYWFLQKPGQSPQLLIYRMSNLASGVPDRFSGSGSGTDFTLKISRVEAEDVGVYYCMQHLEYPYTFGGGTKLEIKR
notes: Humanized, human IgG1 / kappa; also called hz2-7(1L2)
B2: Anti-C1s antibody hz2-8 (H1L2 G80A) (antibody, V domains shown)
VH: QVQLVQSGAEVKKPGASVKVSCKASGFNIKEYYMHWVRQAPEQGLEWMGWIDPENADTIYAQKFQGRVTITADTSTNTAYMELSSLRSEDTAVYYCARSRLFFAYWGQGTLVTVSS
VL: DIQMTQSPKSLSASVGDRVTITCRASQDVRTALDWYQQKPGQSPKLLIYSASYRYSGVPSRFSGSGSGTDFTLTISSLQPEDFATYYCQQQYTTPYTFGQGTKLEIKR
notes: Humanized variant with G80A in HC CDR2 (already in the entry), human IgG1 / kappa
B3: Anti-C1s antibody hz2-8 (H1L2 G80A/T82A) (antibody, V domains shown)
VH: B2 VH with T58A
VL: B2 VL
notes: Humanized variant with G80A and T82A in HC CDR2 (already in the entry), human IgG1 / kappa
B4: Anti-C1s antibody 2-7 (antibody, human IgG1, kappa, V domains shown)
VH: EVKLEESGGGLVPPGGSMKLSCVASGFTFSNYFMNWVRQSPEKGLEWVAEIRLKFTNYATHYAESVEGRFTISRDDSKSSVYLQMNNLRAEDTGIYYCTRDYGSRNGYFDYWGQGTTLTVSS
VL: DIVMTQAAPSVPVTPGESVSISCRSSKSLLHSNGNTFLYWFLQRPGQSPQLLIYRMSNLASGVPDRFSGSGSGTAFTLRVSRVEAEDVGIYYCMQHLEYPYTFGGGTKLEIKT
notes: the HC/LC entries may hold it too; also called clone 2-7
B5: Anti-C1s antibody 2-8 (antibody, V domains shown)
VH: EVQLQQSGAELVRPGALVKLSCKASGFNIKEYYMHWVKQRPEQGLEWIGWIDPENGDTIYDPKFQGKASITADTSSNTAYLQLSSLTSEDTAVYYCARSRLFFAYWGQGTLVTVSA
VL: DIVMTQSHKFMSTSVGDRVSFTCKASQDVRTAVDWYQQKPGQSPKLLIYSASYRYTGVPDRFTGTGSGTDFTFTISSVQAEDLAVYFCQQQYTTPYTFGGGTKLEIKT
notes: the HC/LC entries may hold it too; also called clone 2-8

Key:
[1] = molecular target: T1, cynomolgus monkey C1s (produced in …); experiment: ELISA, plate coated with 200 ng/well CyC1s, OD450nm
Description: The next morning, plates were blocked with SuperBlock T20 blocking buffer (Thermo Scientific 37536) for 1 h with gentle shaking. Then, various concentrations of anti-C1s antibodies diluted in SuperBlock T20 blocking buffer were added to the plates and incubated for 1 h with gentle shaking. Mouse IgG (Sigma-Aldrich I5381) and Human IgG1 (BioXCell BP0297) were used as negative controls. The plates were washed before incubating with HRP conjugated secondary antibodies diluted in SuperBlock T20 blocking buffer (goat anti-mouse IgG (H+L) cross-adsorbed secondary antibody HRP (Invitrogen G-21040) or goat anti-human IgG antibody, HRP conjugate (Millipore AP309P)) for 1 h with gentle shaking. At last, the plates were washed and color developed with ELISA liquid substrate (Sigma-Aldrich), followed by stopping the reaction with addition of the same volume of […] 1M H₂SO₄. Bound antibody was measured by absorbance at OD₄₅₀ₙₘ.

[2] = molecular target: T2, human C1s mutant M4 (P280A & E282K); experiment: ELISA, plate coated with human C1s mutant M4: P280A, E282K, OD450nm
Description: ELISA was carried out by first coating 96-well plates with 200 ng/well of full-length or truncated C1s proteins overnight. The next morning, plates were blocked with SuperBlock T20 blocking buffer (Thermo Scientific 37536) for 1 h with gentle shaking. Then, various concentrations of anti-C1s antibodies diluted in SuperBlock T20 blocking buffer were added to the plates and incubated for 1 h with gentle shaking. Mouse IgG (Sigma-Aldrich 15381) and human IgG1 (BioXCell BP0297) were used as negative controls. The plates were washed before incubating with HRP conjugated secondary antibodies diluted in SuperBlock T20 blocking buffer (goat anti-mouse IgG (H+L) cross-adsorbed secondary antibody HRP (Invitrogen G-21040) or goat anti-human IgG antibody, HRP conjugate (Millipore AP309P)) for 1 h with gentle shaking. At last, the plates were washed and color developed with ELISA liquid HRP substrate (Sigma-Aldrich), followed by stopping the reaction with addition of 1M H₂SO₄ in the same volume as the ELISA liquid substrate. Bound antibody was measured by absorbance at OD₄₅₀ₙₘ.
Binding of anti-C1s antibodies to mutants M1-M20 of human C1s was measured by ELISA as described in Example 4, and results are shown in FIGS. 6B-6U. All anti-C1s humanized variants including hz2-7(H1L2), hz2-8(H1L2 G80A) and hz2-8(H1L2 G80A/T82A) maintained strong binding properties to the majority (16 out of 20) of C1s mutants including M1 (FIG. 6B), M2 (FIG. 6C), M3 (FIG. 6D). M4 (FIG. 6E), M7 (FIG. 6H), M8 (FIG. 6I), M10 (FIG. 6K), M11 (FIG. 6L), M12 (FIG. 6M), M13 (FIG. 6N), M15 (FIG. 6P), M16 (FIG. 6Q), M17 (FIG. 6R), M18 (FIG. 6S), M19 (FIG. 6T) and M20 (FIG. 6U).

Binder	EC50 [1] [µg/mL]	EC50 [2] [µg/mL]
B1	0.015	0.013
B2		0.01
B3	0.01	0.01
B4	0.011	
B5	0.012	
